From publication PMC8044209

What was measured:
Med15 ABD1 (yeast) = Med15 ABD1 (yeast) (UniProt P19659); assay: ITC; Gal4 AD in the syringe (1.11 mM), Med15 domain in the cell (ABD1 0.102 mM; ABD2 0.11 mM); 22 °C; 20 mM KH2PO4 pH 7.5, 200 mM KCl; single binding site model
Med15 ABD2 (yeast) = Med15 ABD2 (yeast) (UniProt P19659); assay: as above
[1] = target: Gal4 AD (residues 828–881) labeled with Oregon Green 488 (yeast) (UniProt P04386); assay: fluorescence polarisation; Oregon Green 488-labelled Gal4 AD; 15 concentrations of Med15 spanning 0–250 μM; 22 °C; 20 mM KH2PO4 pH 7.5, 200 mM KCl; one-site total binding model
[2] = target: Gal4 AD (Gal4 residues 828–881) (yeast) (UniProt P04386); assay: NMR titration; (1H,15N)- and (1H,13C)-HSQC titrations; unlabeled Gal4 AD or ABD added to ~200 μM 13C,15N-labelled AD or ABD; 25 °C; 20 mM sodium phosphate, 150 mM NaCl, 0.1 mM EDTA, 5 mM DTT, pH 6.5
[3] = target: Gcn4 cAD (Saccharomyces cerevisiae) (UniProt P03069); assay: FP; settings: cited from earlier work
[4] = target: Gcn4 nAD (Saccharomyces cerevisiae) (UniProt P03069); assay: FP; settings: cited from earlier work
[5] = target: Gcn4 tAD (Saccharomyces cerevisiae) (UniProt P03069); assay: FP; settings: cited from earlier work

Row | Kd [1] | Substance | Kd [3] | Kd [4] | Kd [5] | further results
1 | 2.04 µM | Med15 158–651 Δ239–272, Δ373–483 (ABD123) (from UniProt P19659 158-651) (domain or fragment) |  |  |  | 
2 | 16.2 µM | Med15 484–651 (ABD3) (from UniProt P19659 484-651) (domain or fragment) |  |  |  | 
3 | 98 µM | Med15 ABD2 (from UniProt P19659 277-368) (domain or fragment) |  |  |  | 

Continued, substance first:

Row | Substance | Kd [1] | Kd [3] | Kd [4] | Kd [5] | further results
4 | Gal4 AD (Gal4 residues 828–881) (from UniProt P04386 828-881) (domain or fragment) |  |  |  |  | Kd (Med15 ABD1 (yeast)): 9.2 µM; Kd (Med15 ABD2 (yeast)): 35 µM
5 | Med15 ABD1 (from UniProt P19659 158-238) (domain or fragment) | 9.24 µM |  |  |  | exchange rate [2]: > 250 s⁻¹; lifetime of the bound state [2]: < 4 ms
6 | Med15 ABD1 (from UniProt P19659) |  | 2.5 µM | 3.3 µM | 2.66 µM | 
7 | Med15 ABD2 (from UniProt P19659) |  | 147 µM | 21.8 µM | 19.5 µM | 
8 | Med15 ABD3 (from UniProt P19659) |  | 13.9 µM | 2.6 µM | 4.4 µM | 
9 | Med15 ABD123 (from UniProt P19659) |  |  | 0.36 µM |  | 
